Legend:
[1] = β1,3-N-acetylglucosaminyl transferase activity in cell extract of stable transformants (Example 8); type: biochemical, human; conditions: cell extract of Namalwa KJM-1 transformed by expression plasmid; 50 μM pyridylaminated LNnT; 37° C., 16 hours; control plasmid cells 1.8%
Protocol: The β1,3-N-acetylglucosaminyl transferase activity was examined by using a cell extract of stable transformants which were transformed by a plasmid capable of expressing G3, G4, G4-2 or G7 polypeptide obtained in Example 7.
The transformed cells (about 2×10^7) were transferred into a microtube (1.5 ml: manufactured by Eppendorf) and centrifuged (550×g for 7 minutes) to collect the cells. The cells were washed with 0.9 ml of PBS, the washed cells were suspended in a solution […] composed of 20 mmol/l HEPES (pH 7.2) and 1% Triton X-100 and then the cells were disrupted by a sonicator (Bioruptor; manufactured by Cosmo Bio). After standing at 4° C. for 1 hour, a supernatant was obtained by centrifugation (550×g for 7 minutes). The supernatant was used as an enzyme sample. The β1,3-N-acetylglucosaminyl transferase activity was measured by using this enzyme sample.
Preparation of a pyridylaminated sugar chain substrates and activity measurement were carried out in accordance with known methods [Japanese Published Unexamined Patent Application No. 181757/94, Japanese Published Unexamined Patent Application No. 823021/94, J. Biol. Chem., 269, 14730 (1994), J. Biol. Chem., 267, 2994 (1992)].
(§1) Specifically, the reaction was carried out at 37° C. for 16 hours in 30 μl of an assay solution [200 mmol/l of MOPS (pH 7.5), 50 mmol/l of UDP-GlcNAc (SIGMA), 20 mmol/l of MnCl2, 0.3% Triton X-100, 50 μM of a pyridylaminated sugar chain substrate and 10 μl of the above cell lysate], and then products were detected by a high performance liquid chromatography (HPLC).
As a substrate, lacto-N-neotetraose (Galβ1-4GlcNAcβ1-3Galβ1-4Glc; hereinafter referred to as “LNnT”) fluorescence-labeled with aminopyridine was used. […]
(§2) Products were detected by using a fluorescence spectrum photometer FP-920 (JASCO Corporation) (excitation wavelength 320 nm, radiation wavelength 400 nm). […]
(§3) The amount of products was measured by using pyridylaminated lactose as a standard and comparing their fluorescence intensity.

[2] = β1,3-N-acetylglucosaminyl transferase activity of secreted FLAG peptide-fused polypeptides (method of Example 8); type: biochemical, human
Protocol: as §1
As a substrate, lacto-N-neotetraose (Galβ1-4GlcNAcβ1-3Galβ1-4Glc; hereinafter referred to as “LNnT”) fluorescence-labeled with aminopyridine was used.
After carrying out the reaction by using the assay solution with or without UDP-GlcNAc (sugar donor), HPLC was carried out and peaks appeared only in the assay solution containing UDP-GlcNAc were defined as products.
The assay solution after completion of the reaction was treated at 100° C. for 5 minutes and then centrifuged at 10,000×g for 5 minutes, and a portion (5 μl) of the thus obtained supernatant was applied to HPLC.
The HPLC was carried out by using TSK-gel ODS-80Ts column (4.6×300 mm; Tosoh); 0.02 M ammonium acetate buffer (pH 4.0) was used as an eluate at elution temperature 50° C. and flow rate 0.5 ml/min.
as §2, §3
A β1,3-N-acetylglucosaminyl transferase activity of FLAG peptide-fused G4 polypeptide expressed as a secreted form in Namalwa KJM-1 cell was measured by using 15 μl of the eluate prepared in the above (4). […] As a result, a β1,3-N-acetylglucosaminyl transferase activity was detected when the eluate derived from the culture supernatant of pAMoF2-G4-introduced Namalwa KJM-1 cell was used. […] On the other hand, the activity was not detected when the eluate derived from the culture supernatant of Namalwa KJM-1 cell transformed by the vector pAMoF2 was used.
A β1,3-N-acetylglucosaminyl transferase activity of FLAG peptide-fused G4 polypeptide produced as a secreted form in the insect cell was measured using 15 μl of the eluate prepared in the above (3). […] As a result, a β1,3-N-acetylglucosaminyl transferase activity was detected when the eluate derived from the culture supernatant of the insect cell transformed by pVL1393-F2G4 was used.
A β1,3-N-acetylglucosaminyl transferase activity was also detected when the resin before elution was used. […]
A β1,3-N-acetylglucosaminyl transferase activity of FLAG peptide-fused G3 polypeptide was measured by using 15 μl of the purified sample prepared in the above (3). […] As a result, a β1,3-N-acetylglucosaminyl transferase activity was detected. […]

[3] = 15 μl eluate/purified sample from insect cell (Sf21) culture supernatant

| ratio of the substrate converted into the product [2, 3] [%] | ratio of the substrate converted into the product ([2]; 15 μl eluate from culture supernatant of pAMoF2-G4-introduced Namalwa KJM-1 cell) [%] | ratio of the substrate converted into the product ([2]; insect cell product, resin before elution (enzyme adsorbed to Anti-FLAG M1 Affinity Gel)) [%] | Molecule | ratio of a substrate (LNnT) converted into a product (GlcNAcβ1-3Galβ1-4GlcNAcβ1-3Galβ1-4Glc) [1] [%] |
| --- | --- | --- | --- | --- |
|  |  |  | G4: polypeptide composed of 372 amino acids, SEQ ID NO:2; novel β1,3-N-acetylglucosaminyl transferase (protein, listed as Homo sapiens) MKYLRHRRPNATLILAIGAFTLLLFSLLVSPPTCKVQEQPPAIPEALAWPTPPTRPAPAPCHANTSMVTHPDFATQPQHVQNFLLYRHCRHFPLLQDVPPSKCAQPVFLLLVIKSSPSNYVRRELLRRTWGRERKVRGLQLRLLFLVGTASNPHEARKVNRLLELEAQTHGDILQWDFHDSFFNLTLKQVLFLQWQETRCANASFVLNGDDDVFAHTDNMVFYLQDHDPGRHLFVGQLIQNVGPIRAFWSKYYVPEVVTQNERYPPYCGGGGFLLSRFTAAALRRAAHVLDIFPIDDVFLGMCLELEGLKPASHSGIRTSGVRAPSQHLSSFDPCFYRDLLLVHRFLPYEMLLMWDALNQPNLTCGNQTQIY | 2.8 |
|  |  |  | G4-2: polypeptide containing 372 amino acids, SEQ ID NO:3; 328th amino acid Arg instead of His (protein, listed as Homo sapiens) MKYLRHRRPNATLILAIGAFTLLLFSLLVSPPTCKVQEQPPAIPEALAWPTPPTRPAPAPCHANTSMVTHPDFATQPQHVQNFLLYRHCRHFPLLQDVPPSKCAQPVFLLLVIKSSPSNYVRRELLRRTWGRERKVRGLQLRLLFLVGTASNPHEARKVNRLLELEAQTHGDILQWDFHDSFFNLTLKQVLFLQWQETRCANASFVLNGDDDVFAHTDNMVFYLQDHDPGRHLFVGQLIQNVGPIRAFWSKYYVPEVVTQNERYPPYCGGGGFLLSRFTAAALRRAAHVLDIFPIDDVFLGMCLELEGLKPASHSGIRTSGVRAPSQRLSSFDPCFYRDLLLVHRFLPYEMLLMWDALNQPNLTCGNQTQIY | 2.8 |
|  |  |  | G3: polypeptide containing 397 amino acids, SEQ ID NO:1; novel β1,3-N-acetylglucosaminyl transferase (protein, listed as Homo sapiens) MSVGRRRIKLLGILMMANVFIYFIMEVSKSSSQEKNGKGEVIIPKEKFWKISTPPEAYWNREQEKLNRQYNPILSMLTNQTGEAGRLSNISHLNYCEPDLRVTSVVTGFNNLPDRFKDFLLYLRCRNYSLLIDQPDKCAKKPFLLLAIKSLTPHFARRQAIRESWGQESNAGNQTVVRVFLLGQTPPEDNHPDLSDMLKFESEKHQDILMWNYRDTFFNLSLKEVLFLRWVSTSCPDTEFVFKGDDDVFVNTHHILNYLNSLSKTKAKDLFIGDVIHNAGPHRDKKLKYYIPEVVYSGLYPPYAGGGGFLYSGHLALRLYHITDQVHLYPIDDVYTGMCLQKLGLVPEKHKGFRTFDIEEKNKNNICSYVDLMLVHSRKPQEMIDIWSQLQSAHLKC | 2.7 |
| 100 |  |  | FLAG peptide-fused G3 polypeptide: secreted G3, 31st serine to 397th cysteine of SEQ ID NO:1, with immunoglobulin signal sequence and FLAG peptide (protein, listed as Homo sapiens, Ig signal sequence and FLAG peptide) SSQEKNGKGEVIIPKEKFWKISTPPEAYWNREQEKLNRQYNPILSMLTNQTGEAGRLSNISHLNYCEPDLRVTSVVTGFNNLPDRFKDFLLYLRCRNYSLLIDQPDKCAKKPFLLLAIKSLTPHFARRQAIRESWGQESNAGNQTVVRVFLLGQTPPEDNHPDLSDMLKFESEKHQDILMWNYRDTFFNLSLKEVLFLRWVSTSCPDTEFVFKGDDDVFVNTHHILNYLNSLSKTKAKDLFIGDVIHNAGPHRDKKLKYYIPEVVYSGLYPPYAGGGGFLYSGHLALRLYHITDQVHLYPIDDVYTGMCLQKLGLVPEKHKGFRTFDIEEKNKNNICSYVDLMLVHSRKPQEMIDIWSQLQSAHLKC |  |
| 12.1 | 0.51 | 21.0 | FLAG peptide-fused G4 polypeptide: secreted G4, 38th glutamic acid to 372nd tyrosine of SEQ ID NO:2, with immunoglobulin signal sequence and FLAG peptide (protein, listed as Homo sapiens, Ig signal sequence and FLAG peptide) EQPPAIPEALAWPTPPTRPAPAPCHANTSMVTHPDFATQPQHVQNFLLYRHCRHFPLLQDVPPSKCAQPVFLLLVIKSSPSNYVRRELLRRTWGRERKVRGLQLRLLFLVGTASNPHEARKVNRLLELEAQTHGDILQWDFHDSFFNLTLKQVLFLQWQETRCANASFVLNGDDDVFAHTDNMVFYLQDHDPGRHLFVGQLIQNVGPIRAFWSKYYVPEVVTQNERYPPYCGGGGFLLSRFTAAALRRAAHVLDIFPIDDVFLGMCLELEGLKPASHSGIRTSGVRAPSQHLSSFDPCFYRDLLLVHRFLPYEMLLMWDALNQPNLTCGNQTQIY |  |

— patent US7972815B2, “Method of producing sugar chain using human G4 polypeptide” (Kyowa Hakko Kirin Co., Ltd., priority 1999, dated 2011)
